The values below come from patent US7115267.

One experiment concerns the target mu opiate receptor. As to the kind of experiment: cell-based or functional assay.
Experiment [1] addresses p141-ubiquitin fusion protein (human) (UniProt P0CG47). As to the kind of experiment: cell-based or functional assay.

p141-ubiquitin fusion protein (human), sequence (P0CG47 other isoform, or with tags, fused parts or gaps): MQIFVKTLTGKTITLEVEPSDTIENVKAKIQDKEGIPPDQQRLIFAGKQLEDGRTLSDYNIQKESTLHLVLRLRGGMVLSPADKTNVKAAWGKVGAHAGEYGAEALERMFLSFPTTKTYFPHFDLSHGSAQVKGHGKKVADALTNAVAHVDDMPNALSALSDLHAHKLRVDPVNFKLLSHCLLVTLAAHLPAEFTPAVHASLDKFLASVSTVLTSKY

As to “Purified human hemoglobin alpha chain (from UniProt P69905 2-142)”, the % Kill in the CFU-MIX cycling assay, Human Alpha (100 ng/ml) + CTOP 10^-7 M (0 without CTOP; control 42; CTOP alone 36) with mu opiate receptor came out at 20%. Substance “UBP1 ubiquinase (from UniProt P25037 1-809) (enzyme)” gave a digestion of the ubiquitin fusion protein in vivo (co-expression in bacteria) in experiment [1] of 70%.
